Experimental data from article doi:10.1101/2020.03.23.004119 (bioRxiv, 2020).

Target: the molecule itself
Assay: two-hybrid

B1: hPFKFB4 mammalian two-hybrid fusion (pBind-PFKFB4 and pAct-PFKFB4) (enzyme, human, UniProt Q16877 1-469, looked up)
chain: MASPRELTQNPLKKIWMPYSNGRPALHACQRGVCMTNCPTLIVMVGLPARGKTYISKKLTRYLNWIGVPTREFNVGQYRRDVVKTYKSFEFFLPDNEEGLKIRKQCALAALRDVRRFLSEEGGHVAVFDATNTTRERRATIFNFGEQNGYKTFFVESICVDPEVIAANIVQVKLGSPDYVNRDSDEATEDFMRRIECYENSYESLDEDLDRDLSYIKIMDVGQSYVVNRVADHIQSRIVYYLMNIHVTPRSIYLCRHGESELNLKGRIGGDPGLSPRGREFAKSLAQFISDQNIKDLKVWTSQMKRTIQTAEALGVPYEQWKVLNEIDAGVCEEMTYEEIQDNYPLEFALRDQDKYRYRYPKGESYEDLVQRLEPVIMELERQENVLVICHQAVMRCLLAYFLDKAAEQLPYLKCPLHTVLKLTPVAYGCKVESIFLNVAAVNTHRDRPQNVDISRPPEEALVTVPAHQ
- fold luciferase expression over the negative controls: 6 fold
